Source: doi:10.1101/2022.07.20.500776v2

Substrate: O=[N+]([O-])c1ccc(OP(=O)(O)O)cc1
Assay: purified protein
Details: pH 8.0, 100 mM Tris-HCl, 1 mM MgCl2, 10 °C, no added NaCl

B1: Vibrio alkaline phosphatase (VAP) (Vibrio sp. G15-21) (protein)
chain: AEIKNVILMIGDGMGPQQVGLLETYANQAPNSIYKGNKTAIYQLAQEGVIGSSLTHPEDAIVVDSACSATMLATGIYSSSEVIGIDSQGNHVETVLEKAKKAGKATGLVSDTRLTHATPASFAAHQPHRSLENQIASDMLATGADVMLSGGLRHWIPKSTNDKGETYKQLEKLTQGDVYLKSKRKDDRNLLTEAEKDGYQLAFNRNMLDDAKGDKLLGLFAYSGMDDGIAYSNKKKSGERTQPSLKEMTQKALNILSKDEDGFFLMVEGGQIDWAGHSNDAGTMLHELLKFDEAIQTVYEWAKDREDTIVIVTADHETGSFGFSYSSNDLPKPQKRSGEAFADRDYAPNFNFGAFDILDGLYNQKQSYYGMISEFQKLDKSLQTPEKLAEIVNKNSEFPITAEQAKNVLASKPNPYRLAQHKYLSAEEVPAINDFDAFFPYNDRGNLLAREQATGQNIVWGTGTHTHTPVNVFAWGPAEKILPVSKIMHHSELGEYIKQQVN
B1 gave a Km of 7.6 ± 1.8 µM and a kcat of 231 ± 15 s⁻¹.
